From US20140235820A1, “METHODS AND COMPOSITIONS FOR MODULATING THE Wnt PATHWAY” (Genentech, Inc., priority 2010, published 2014) come the findings set out here.

Positions of bridges follow the written chain, without caps; N, C: chain ends.

Assay [1] addresses T1, sclerostin binding to LRP6 E1E2 (Homo sapiens, UniProt O75581).
T1 construct: construct E1E2-amino acids A20-E631 of LPR6; made in house; host or cells: Tni insect cells (baculovirus, secreted)
T1 sequence (O75581 20-631): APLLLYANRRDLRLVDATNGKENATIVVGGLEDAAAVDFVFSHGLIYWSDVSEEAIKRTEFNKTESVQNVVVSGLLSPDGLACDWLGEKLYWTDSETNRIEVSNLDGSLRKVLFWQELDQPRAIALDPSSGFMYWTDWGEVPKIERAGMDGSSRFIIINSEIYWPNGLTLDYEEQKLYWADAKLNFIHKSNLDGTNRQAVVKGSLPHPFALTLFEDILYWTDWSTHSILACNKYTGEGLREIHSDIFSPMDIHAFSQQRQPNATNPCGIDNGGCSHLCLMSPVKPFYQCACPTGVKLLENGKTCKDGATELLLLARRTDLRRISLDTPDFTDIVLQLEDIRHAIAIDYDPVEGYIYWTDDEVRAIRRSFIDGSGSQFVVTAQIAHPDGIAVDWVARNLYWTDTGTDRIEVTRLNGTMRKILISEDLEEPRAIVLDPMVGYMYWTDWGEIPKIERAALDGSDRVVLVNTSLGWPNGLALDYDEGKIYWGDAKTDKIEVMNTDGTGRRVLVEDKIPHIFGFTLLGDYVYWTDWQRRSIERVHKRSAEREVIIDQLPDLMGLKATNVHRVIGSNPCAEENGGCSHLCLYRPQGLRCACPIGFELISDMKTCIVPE
Description: Peptide inhibition of sclerostin binding to LRP6 E1E2 (biolayer interferometry). To be noted: peptide 20-fold higher than IC50; ligand three-fold higher than dissociation constant. The method, then: (§1) FIG. 22. […] Binding was assessed by biolayer interferometry, as described in Example 1. Immobilized LRP6 E1E2 was exposed to protein ligand (Wnt 9b, Dkk1, or sclerostin) present in solution at a concentration three-fold higher than the measured dissociation constant for E1E2. Competing peptides were added at a saturating level (20-fold higher than the measured IC50 value). Peptide A: Ac-NSNAIKN-am; Peptide B: Ac-[…]-am (disulfide); Peptide C: Ac-[…]-am (disulfide)
(§2) Binding kinetics were measured by biolayer interferometry using an Octet Red instrument (ForteBio) as previously described (11). Streptavidin (SA) biosensors were loaded with biotinylated hLRP6 in 50 mMTris, pH 8, 300 mM NaCl, 5% (v/v) glycerol, and 0.05% (w/v) Triton X-100. The loaded biosensors were washed in the same buffer before carrying out association and dissociation measurements for the indicated times. The Kd of each interaction was determined using steady state-analysis through the Octet Red software v6.3. Each reported value represents an average of three or more experiments at different concentrations, with a fitted experimental curve for which the square of the correlation coefficient (R^2) is above 0.96.
(§3) To support the conclusions from protein mutagenesis, peptides were assayed for inhibitory activity toward binding of various ligands to LRP6. Three different peptides inhibited binding of the inhibitors Dkk1 and sclerostin to LRP6 E1E2 without affecting the binding of Wnt9B (FIG. 22).
On the technique in general: Biolayer interferometry detects binding as a change in optical thickness at a sensor tip.

Assay [2] has as its target T2, Dkk1 binding to LRP6 E1E2 (Homo sapiens, UniProt O75581).
T2 construct: construct E1E2-amino acids A20-E631 of LPR6; made in house; host or cells: Tni insect cells (baculovirus, secreted)
T2 sequence (O75581 20-631): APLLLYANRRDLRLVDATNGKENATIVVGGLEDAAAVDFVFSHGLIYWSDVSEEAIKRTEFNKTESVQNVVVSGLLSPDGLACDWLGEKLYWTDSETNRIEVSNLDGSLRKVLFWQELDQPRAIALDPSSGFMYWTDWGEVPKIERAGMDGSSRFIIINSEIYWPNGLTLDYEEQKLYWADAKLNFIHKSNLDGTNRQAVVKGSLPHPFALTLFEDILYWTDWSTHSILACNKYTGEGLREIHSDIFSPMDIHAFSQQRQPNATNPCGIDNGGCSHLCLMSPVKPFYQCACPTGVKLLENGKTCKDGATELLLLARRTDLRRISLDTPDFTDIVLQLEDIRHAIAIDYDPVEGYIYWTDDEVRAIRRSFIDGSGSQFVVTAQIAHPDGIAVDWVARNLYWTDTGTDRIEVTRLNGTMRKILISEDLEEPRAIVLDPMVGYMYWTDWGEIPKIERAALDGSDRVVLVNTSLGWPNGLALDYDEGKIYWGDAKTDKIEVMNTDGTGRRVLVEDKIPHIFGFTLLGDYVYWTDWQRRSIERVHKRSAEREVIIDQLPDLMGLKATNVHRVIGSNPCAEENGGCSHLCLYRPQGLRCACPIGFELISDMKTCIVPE
The assay can be described thus: Peptide inhibition of Dkk1 binding to LRP6 E1E2 (biolayer interferometry). Conditions: peptide 20-fold higher than IC50; ligand three-fold higher than dissociation constant. The method, then: as §1, §2, §3

On to “Ac-NSNAIKN-am (Ac-NSNAIKN-NH2) [Peptide A]”, for which the “inhibition of sclerostin binding to LRP6 E1E2” value in assay [1] is given as “inhibit binding”. The “inhibition of Dkk1 binding to LRP6 E1E2” value in assay [2] was “inhibit binding”.

In the case of “Ac-CNSIKFCG-am (disulfide) (Ac-CNSIKFCG-NH2; disulfide 1-7 (inferred)) [Peptide B]”, the “inhibition of sclerostin binding to LRP6 E1E2” value in assay [1] is “inhibit binding”. The “inhibition of Dkk1 binding to LRP6 E1E2” value in assay [2] is “inhibit binding”.
